Experimental findings from patent US7727950B2, “Methods and reagents for assaying protein kinase activity” (The University of Dundee, priority 2002, dated 2010) are described below.

Substrate in this data set: CC(C)C[C@H](NC(=O)[C@@H](NC(=O)[C@H](CCCNC(=N)N)NC(=O)[C@H](C)NC(=O)[C@@H](N)CCCNC(=N)N)[C@@H](C)O)C(=O)N[C@@H](CO)C(=O)N[C@@H](Cc1ccccc1)C(=O)N[C@@H](C)C(=O)N[C@@H](CCC(=O)O)C(=O)N1CCC[C@H]1C(=O)NCC(=O)O
The data set can be described thus: Kinetic parameters for peptide phosphorylation, radioactive filter-binding assay. Format: biochemical, human. Particulars: other: MAPKAP-K3; Standard Substrate = …; 30.0 °C. The source says: Apart from the AMP-activated protein kinase (AMPK, a gift from Drs S. Hawley and D. G. Hardie), cGMP-dependent protein kinase (PKG, a generous gift from Drs Susan Lohmann and Ulrich Walter, University of Wurzburg, Germany) and the catalytic subunit of cyclic AMP-dependent protein kinase (PKA, a gift from Dr C. Smythe), which were isolated from rat liver, bovine lung and bovine heart, respectively, all other protein kinases were expressed as either GST-fusion or His-tagged proteins (by a person, a person, Dr A. Paterson or a person, in this Division). The expressed proteins all corresponded to the human sequences apart from the rat Rho-dependent protein kinase (ROCK-II) and rat mitogen-activated protein kinase (MAPK) activated kinase-1a (MAPKAP-K1a, also called RSK). […]
All protein kinase assays were linear with respect to time. […] All papers were subsequently washed a further three times in phosphoric acid, once in acetone, then dried and counted for radioactivity. […] The plates were then washed six times (five min per wash) in PBS, 0.1% Tween 20 and binding of the phospho-specific antibody detected by incubating the plates with peroxidase-conjugated anti-sheep antibodies (Pierce). […] Signals were quantitated on LAS-1000IR software (FujiFilm). […]

B1: MAPKAP-K3 (Homo sapiens) (protein)
chain: MDGETAEEQGGPVPPPVAPGGPGLGGAPGGRREPKKYAVTDDYQLSKQVLGLGVNGKVLECFHRRTGQKCALKLLYDSPKARQEVDHHWQASGGPHIVCILDVYENMHHGKRCLLIIMECMEGGELFSRIQERGDQAFTEREAAEIMRDIGTAIQFLHSHNIAHRDVKPENLLYTSKEKDAVLKLTDFGFAKETTQNALQTPCYTPYYVAPEVLGPEKYDKSCDMWSLGVIMYILLCGFPPFYSNTGQAISPGMKRRIRLGQYGFPNPEWSEVSEDAKQLIRLLLKTDPTERLTITQFMNHPWINQSMVVPQTPLHTARVLQEDKDHWDEVKEEMTSALATMRVDYDQVKIKDLKTSNNRLLNKRRKKQAGSSSASQGCNNQ
notes: GST; made in house; host or cells: E. coli
As for B1, the Km came to 30 µM.

As usually defined, the Km is the concentration of substrate that gives half-maximal velocity.
